Where a chain is given by its changes, count along the chain named. Each block holds one binder with its values, some of them ahead of it.
Target: T1, human GPRC5D protein (human, UniProt Q9NZD1 1-345)
T1 construct: also called hGPRC5D
Assay: FACS, subclone supernatant on H929 cells
Procedure: An H929 (i.e., NCI-H929) cell suspension at a cell concentration of 3× 10⁵ cells/mL was plated into a 96-well U-bottom plate at 100 μL/well. The subcloned cell culture supernatant was added at 100 μL/well or an equal volume of culture medium (hereinafter referred to as Medium) was added. The mixture was mixed well, and then incubated at 4° C. for 1 h. The cells were washed with PBS containing 2% (by volume) of FBS. An AlexaFluor488-conjugated goat anti-mouse IgG+IgM (H+L) antibody (Jackson Immuno Research, Cat. No.: 115-545-044) was added, and the mixture was incubated at 4° C. for 1 h. The cells were washed with PBS containing 2% (by volume) of FBS and then resuspended. Fluorescence signals were detected on a flow cytometer (Sartorius, IQue3). The binding of the mouse anti-hGPRC5D antibody to H929 cells was analyzed by the mean fluorescence intensity (MFI) of staining.

T1 sequence (Q9NZD1 whole entry): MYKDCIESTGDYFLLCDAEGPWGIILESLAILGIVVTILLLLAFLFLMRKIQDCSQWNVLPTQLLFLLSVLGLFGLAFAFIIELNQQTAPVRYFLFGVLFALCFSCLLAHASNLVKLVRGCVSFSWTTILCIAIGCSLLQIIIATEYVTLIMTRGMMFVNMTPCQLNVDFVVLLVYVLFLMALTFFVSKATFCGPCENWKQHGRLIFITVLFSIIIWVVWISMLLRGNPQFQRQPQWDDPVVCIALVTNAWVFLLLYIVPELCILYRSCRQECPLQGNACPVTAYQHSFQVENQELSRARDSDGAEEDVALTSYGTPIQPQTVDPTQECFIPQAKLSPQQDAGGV

MFI: 59300 MFI
B1: mouse anti-hGPRC5D antibody mu-169 (antibody, V domains shown)
VH: EVKLVESGGGLVKPGASLKLSCAASGFTFSNYGMSWVRQTSDKRLEWVASISSGGGRIYYPDNVKGRFTISRENAKNTLYLQMSSLKSEDTALYYCTRHAMDNWGQGTSVIVSS
VL: QIVLTQSPAIMSASPGEKVTMTCSASSSVSNMYWYQQKSGTSPKRWIYDTSKLASGVPARFSGSGSGTSYSLTISSMEAEDASTYYCQQWSSNPLTFGAGTTLELK
notes: Tested as subcloned hybridoma culture supernatant

MFI: 12800 MFI
B2: mouse anti-hGPRC5D antibody mu-131 (antibody, V domains shown)
VH: EVQLQQSGPELVKPGASVKMSCKASGYTFTNYVMHWVKQKPGQGLEWIGYFNPYNDGTNYNEKFKGKATLTSDKSSNTAYMELSSLTSEDSAVYYCARGGVRRYFDVWGAGTTVTVSS
VL: DIQMTQSPSSLSASLGERVSLTCRASQDIGSNLNWLQLGPDGTIKRLIYATFSLDSGVPKRFSGSRSGSDYSLTISSLESEDFVDYYCQQYANFPPTFGGGTKLEIK
notes: as for B1

MFI: 15700 MFI
B3: mouse anti-hGPRC5D antibody mu-128 (antibody, V domains shown)
VH: DVQLVESGGGLVQPGGSRKVSCAASGFTFSSFGMHWVRQAPEKGLEWVAYISRGSSTIYYADTVKGRFTISRDNPKNTLFLQMTSLRSEDTAMYYCARSGYGSSSYYFDYWGQGTTLTVSS
VL: ENVLTQSPAIMSASPREKVTMTCRASSSIRSSYLHWYQQKSGASPKLWIYSTSNLASGVPARFSGSGSGTSYSLTISSVEAEDAATYYCQQFSGYPLTFGGGTKLEIK
notes: as for B1

MFI: 13200 MFI
B4: mouse anti-hGPRC5D antibody mu-105 (antibody, V domains shown)
VH: EVQLQQSGPELVKPGASVKMSCKASGYTFTDYYMNWVKQSHGKSLEWIGYIYPNNGGTGYNQRFKGKATLTADKSSSTAYMELRSLTSEDSAVYYCARWGGTRLGYYAMDYWGQGTSVTVSS
VL: DIVMTQSQKFMSTSVGDRVSVTCKASQNVGTNVVWYQQKPGQSPKLLIYWASTRHTGVPDRFTGSGSGTDFTLTISNVQSEDLADYFCQQYSRYPYTFGGGTKLEIK
notes: as for B1

MFI: 11900 MFI
B5: mouse anti-hGPRC5D antibody mu-89 (antibody, V domains shown)
VH: EVQLVESGGDLVKPGGSLKLSCAASGFTFSSYGMSWVRQTPDKRLEWVATISSGGSYTYYPDSVKGRFTFSRDNAKNTLYLQMSSLKSEDTAMYYCVRQALRYHMDSWGQGTSVTVSS
VL: B4 VL with V34A, L46A, W50S, T53Y, H55Y, T56S, Y86F, S92Y, R93S, Y96W
notes: as for B1
